Article PMC10140725 (Scientific Reports, 2023)

Columns and labels:
[1] = biological target: hemagglutinin (HA) of H1N1 influenza A strain A/Denver/57/1957, mature HA1/HA2 (Influenza A virus H1N1, strain A/Denver/57/1957); assay: crystal structure
[2] = biological target: hemagglutinin (HA) of H1N1 influenza A strain A/Fort Monmouth/1/1947, mature HA1/HA2 trimer (Influenza A virus H1N1, strain A/Fort Monmouth/1/1947); assay: crystal structure
[3] = biological target: hemagglutinin (HA) of H1N1 influenza A strain A/Hickox/JY2/1940, mature HA1/HA2 trimer (Influenza A virus H1N1, strain A/Hickox/JY2/1940) (UniProt Q0HD60); assay: crystal structure
[4] = biological target: hemagglutinin (HA) of H1N1 influenza A strain A/Melbourne/1/1946, mature HA1/HA2 trimer (Influenza A virus H1N1, strain A/Melbourne/1/1946); assay: crystal structure
[5] = biological target: hemagglutinin (HA) of H1N1 influenza A strain A/Netherlands/002P1/1951, mature HA1/HA2 trimer (Influenza A virus H1N1, strain A/Netherlands/002P1/1951); assay: crystal structure
[6] = biological target: hemagglutinin (HA) of H1N1 influenza A strain A/Iowa/1943 (Influenza A virus H1N1, A/Iowa/1943 …, UniProt A4GCK8, strain); assay: SEC; details: both partners purified

Molecule: hemagglutinin (HA) of H1N1 influenza A strain A/Denver/57/1957, mature HA1/HA2 (natural protein)
- stoichiometry N [1]: 3

Molecule: hemagglutinin (HA) of H1N1 influenza A strain A/Fort Monmouth/1/1947, mature HA1/HA2 trimer (natural protein)
- stoichiometry N [2]: 3

Molecule: hemagglutinin (HA) of H1N1 influenza A strain A/Hickox/JY2/1940, mature HA1/HA2 trimer (from UniProt Q0HD60) (natural protein)
- stoichiometry N [3]: 3

Molecule: hemagglutinin (HA) of H1N1 influenza A strain A/Melbourne/1/1946, mature HA1/HA2 trimer (natural protein)
- stoichiometry N [4]: 3

Molecule: hemagglutinin (HA) of H1N1 influenza A strain A/Netherlands/002P1/1951, mature HA1/HA2 trimer (natural protein)
- stoichiometry N [5]: 3

B1: anti-influenza head-binding antibody C05 fragment antigen binding (Fab) (Fab, V domains shown)
VH: EVQLQESGGGLVQPGESLRLSCVGSGSSFGESTLSYYAVSWVRQAPGKGLEWLSIINAGGGDIDYADSVEGRFTISRDNSKETLYLQMTNLRVEDTGVYYCAKHMSMQQVVSAGWERADLVGDAFDVWGQGTMVTVSS
VL: DIQLTQSPSSLSASVGDRVTLTCQASQDIRKFLNWYQQKPGKGPKLLIYDASNLQRGVPSRFSGGGSGTDFTLIISSLQPEDVGTYYCQQYDGLPFTFGGGTKVVIK
notes: also called C05 Fab; C05 antibody; not shown: His6, C-terminal, kept
- binding result [6]: binds
